In patent US9278138B2, “Peptide linkers for effective multivalent peptide binding” (E. I. DU PONT DE NEMOURS AND COMPANY, priority 2008, dated 2016):

Experiment: Surface Plasmon Resonance binding to spin-coated cellulose acetate surface (Biacore X100)
Conditions: for peptide concentration at which binding response (net RU) started rising: net RU versus peptide concentration, FIG. 6
Experimental: Binding affinity of CA4 peptide and CA4 multimers were assessed by Surface Plasmon Resonance (SPR). The CA surface was prepared by spin-coating 0.75% CA solution in mixed cyclohexanone/methyl ethyl ketone (1/9 weight ratio) solvent at 2000 rpm for 1 minute twice on the Biacore bare gold sensor chip (Biacore Inc., Catalogue numberBR-1004-05; General Electric Corp., Fairfield, Conn.), followed by 80° C. annealing for 15 minutes. The CA resin used was CA-398-10 from Eastman Chemical Company (Kingsport, Tenn.), and the solution prepared was filtered with 0.2 μm PTFE membrane before use. The thickness of the spin-coated CA thin film was measured by Atomic Force Microscope (AFM) to be 26-30 nm.
Binding of each peptide to the CA surface was tested at various concentration ranges in Tris Buffered Saline (TBS, 25 mM Tris, 150 mM NaCl, pH 7.5), using Biacore X100 system. Each peptide solution sample was injected for 2 minutes at flow rate of 30 μL/minute followed by 10 minutes buffer wash. Surface regeneration and stabilization procedure was performed after each peptide solution injection as such: 90 seconds of 1% SLES (sodium laureth sulfate) solution injection and 90 seconds of 2 M NaCl solution injection at flow rate of 10 μL/minute, and 25 minutes stabilization in TBS. For the samples of each peptide at different concentrations, a new sensor chip flow cell was used.
Because a monolithic CA surface made from spin-coating on the whole sensor chip was used as ligand for peptides, no ligand-free reference cell was possible to have in these tests in order to take bulk response out as in conventional SPR protein assay using Biacore instruments. Bulk response refers to the SPR response to the refractive index difference between the sample solution and the running buffer, but not caused by sample binding to the surface. Bulk response completely disappears once sample injection is finished and buffer wash starts. So the response units (RU) remained right after injection was caused by binding and proportional to the mass of peptide bound to the surface, and was named as “net RU” in binding data. […] Typically, association and dissociation rate constant (ka and kd) can be obtained from binding kinetics curve fitting, and dissociation constant (KD). can be determined from the ratio of dissociation rate constant to association rate constant. The use of short linkers (3-6 amino acid residues) in CA4 dimer 1, CA4 dimer 2 and CA4 trimer gave 5 fold improvement on binding affinity compared to CA4 monomer. The use of long rigid linker (TonB linker) in CA4 dimer 4 gave 50 fold improvement on binding affinity compared to CA4 monomer. […] As control, the TonB linker peptide was tested in the same way.

[1] = TBS pH 7.5, from binding kinetics curve fitting

Row | Molecule | binding affinity to CA surface (in words) (SPR) | KD(M) from kinetics (TBS pH 7.5, ratio of kd to ka) | peptide concentration at which binding response (net RU) started rising [µM] | ka [1] [M⁻¹ s⁻¹] | kd [1] [s⁻¹] | Kd (TBS pH 7.5, ratio of kd to ka, read-out: KD(M) from kinetics) [M] | fold improvement on binding affinity compared to CA4 monomer (based on KD of Table 10) [fold]
1 | GPEPEPEPEPIPEPPKEAPWIEKPKPKPKPKPKPA [TonB linker, reference compound] | no binding affinity | undetectable | > 50 | – | – | – | –
2 | SDETGPQIPHRRPTWGPEPEPEPEPIPEPPKEAPVVIEKPKPKPKPKPKPPASDETGPQIPHRRPTW (synethic cellulose acetate-binding construct) SDETGPQIPHRRPTWGPEPEPEPEPIPEPPKEAPVVIEKPKPKPKPKPKPPASDETGPQIPHRRPTW | – | – | 5 | 441.5 | 0.00089 | 2e-06 | 50
